Test results reported in patent US20140087995A1 (published 2014).
Numbered stars: 1 amine (or outer) side, 2 acyl side, 3 side chain; on linkers, the order of the positions; unused ones are H or OH. Bridge positions count the residues as written; N and C are the ends. Side chains are listed from the residue outwards. Ends that are not written are not given here. * marks the point of attachment. C20 diacid = O=C(O)CCCCCCCCCCCCCCCCCCC(=O)*; γGlu = O=C(O)[C@H](CCC(=O)[*:2])N[*:1]

Columns and labels:
rat calcitonin receptor [1] = molecular target: T1, rat calcitonin receptor (rat, UniProt P32214 25-516); assay: ratio of IC50 on rat calcitonin receptor (Assay VIII) to IC50 on rat amylin receptor (Assay VI)
T1 construct: whole, on cells; Used as membranes prepared from the transfected cells (Assay VIII); also called rCTR; rat calcitonin (a) receptor
T1 sequence (looked up): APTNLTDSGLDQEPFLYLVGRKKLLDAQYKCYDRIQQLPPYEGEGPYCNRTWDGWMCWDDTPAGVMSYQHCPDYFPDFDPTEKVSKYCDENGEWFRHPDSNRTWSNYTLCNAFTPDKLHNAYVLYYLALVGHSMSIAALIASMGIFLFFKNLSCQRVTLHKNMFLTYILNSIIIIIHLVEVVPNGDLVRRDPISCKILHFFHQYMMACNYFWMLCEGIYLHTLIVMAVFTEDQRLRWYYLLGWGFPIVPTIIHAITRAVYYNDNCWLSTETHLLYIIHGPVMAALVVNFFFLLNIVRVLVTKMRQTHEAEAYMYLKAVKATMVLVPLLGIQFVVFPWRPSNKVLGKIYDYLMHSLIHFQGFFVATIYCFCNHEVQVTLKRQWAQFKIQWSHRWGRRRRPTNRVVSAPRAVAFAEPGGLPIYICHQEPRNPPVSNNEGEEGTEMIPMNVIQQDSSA

[2] = molecular target: T2, human calcitonin receptor (human, UniProt P30988 25-474); assay: ratio of IC50 on human calcitonin receptor (Assay VII) to IC50 on human amylin receptor (Assay V)
T2 construct: whole, on cells; Used as membranes prepared from the transfected cells (Assay VII); also called hCTR; hCT
T2 sequence (looked up): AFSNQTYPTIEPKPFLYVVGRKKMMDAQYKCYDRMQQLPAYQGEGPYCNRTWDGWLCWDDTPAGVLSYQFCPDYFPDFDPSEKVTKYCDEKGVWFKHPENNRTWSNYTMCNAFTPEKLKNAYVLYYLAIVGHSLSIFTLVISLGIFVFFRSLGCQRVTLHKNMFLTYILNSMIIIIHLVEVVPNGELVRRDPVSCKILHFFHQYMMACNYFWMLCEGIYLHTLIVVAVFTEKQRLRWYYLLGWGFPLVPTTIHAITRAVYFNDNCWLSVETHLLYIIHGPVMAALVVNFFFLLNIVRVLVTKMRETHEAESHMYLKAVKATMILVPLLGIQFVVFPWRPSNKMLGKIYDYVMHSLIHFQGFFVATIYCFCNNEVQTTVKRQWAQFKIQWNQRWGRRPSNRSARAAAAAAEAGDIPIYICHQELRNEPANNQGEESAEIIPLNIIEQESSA
Protocol: The resulting pellet was resuspended, homogenized and centrifuged (20.000 rpm, 15 min) in a buffer containing 20 mM Na-HEPES and 0.1 mM EDTA (pH 7.4, buffer 2). The resulting pellet was resuspended in buffer 2 and protein concentration was measured (BCA protein Assay, Pierce). The homogenate was kept cold during the whole procedure. The membranes were kept at −80° C. until use. The assay was performed in a 384 well Optiplate (PerkinElmer) in a total volume of 40 ul. Membranes were mixed with SPA beads. Final concentration of membranes 35 ng/μL final and SPA beads was 0.05 mg/well. Test-compounds were dissolved in DMSO and further diluted in assay buffer (50 mM Hepes, pH 7.4, 1 mM CaCl2, 5 mM MgCl₂, 0.1% OA and 0.02% Tween20). […] The final mixture was incubated with shaking at 400 rpm for 120 min at 25° C. prior to centrifugation (1500 rpm, 10 min). Samples were analyzed on TopCounter™ (Packard). The IC₅₀ was calculated using (one site binding competition analysis) GraphPad Prism5 as a measure of receptor affinity.
Membranes were prepared in the following way; the cells were rinsed with PBS and incubated with Versene for approximately 5 min before harvesting. The cells were flushed with PBS and the cell-suspension was centrifuged for 5 min at 1000 rpm. Cells were homogenized (Ultrathurrax) in a buffer containing 20 mM Na-HEPES and 10 mM EDTA (pH 7.4) and centrifuged at 20.000 rpm for 15 min. The resulting pellet was resuspended, homogenized and centrifuged (20.000 rpm, 15 min) in a buffer containing 20 mM Na-HEPES and 0.1 mM EDTA (pH 7.4, buffer 2). The resulting pellet was resuspended in buffer 2 and protein concentration was measured (BCA protein Assay, Pierce). The homogenate was kept cold during the whole procedure. The membranes were kept at −80° C. until use. Assay was performed in a 384 well Optiplate (PerkinElmer) in a total volume of 40 ul. Membranes were mixed with SPA beads.

[3] = molecular target: T3, rat amylin receptor (rat calcitonin receptor + rat RAMP 3) (rat, UniProt P32214 25-516; Q9JJ73 23-147); assay: SPA competition binding, displacement of 125I-rat amylin from membranes of BHK tk'ts 13 cells transfected with rat calcitonin receptor + rat RAMP 3 (Assay VI)
T3 construct: whole, on cells; Used as membranes prepared from the transfected cells (Assay VI); also called rAmylin-R; rat amylin 3(a) receptor
T3 sequence (looked up) 1: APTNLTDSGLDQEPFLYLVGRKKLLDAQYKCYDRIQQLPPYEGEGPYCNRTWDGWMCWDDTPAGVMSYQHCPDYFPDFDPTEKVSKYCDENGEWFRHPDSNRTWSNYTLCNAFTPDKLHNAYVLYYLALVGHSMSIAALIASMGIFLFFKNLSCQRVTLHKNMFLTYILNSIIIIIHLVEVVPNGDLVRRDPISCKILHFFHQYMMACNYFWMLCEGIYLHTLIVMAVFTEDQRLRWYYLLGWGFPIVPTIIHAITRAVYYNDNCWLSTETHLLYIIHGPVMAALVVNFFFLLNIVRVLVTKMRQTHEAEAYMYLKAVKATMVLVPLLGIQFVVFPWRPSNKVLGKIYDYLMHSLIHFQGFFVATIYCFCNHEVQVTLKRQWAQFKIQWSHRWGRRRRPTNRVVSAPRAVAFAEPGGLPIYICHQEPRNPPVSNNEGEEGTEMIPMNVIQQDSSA
T3 sequence (looked up) 2: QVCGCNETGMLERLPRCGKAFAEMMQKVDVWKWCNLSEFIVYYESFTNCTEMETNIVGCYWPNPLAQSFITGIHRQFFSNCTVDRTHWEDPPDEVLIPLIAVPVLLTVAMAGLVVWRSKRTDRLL

rat calcitonin receptor [4] = molecular target: T1, rat calcitonin receptor; assay: SPA competition binding, displacement of 125I-calcitonin from membranes of BHK tk'ts 13 cells transfected with rat calcitonin receptor (Assay VIII)

Row | Binder | Ratio rCT/rAmylin binding (rat calcitonin receptor [1]) | Ratio hCT/hAmylin binding [2] | IC50 [3] | IC50 (rat calcitonin receptor [4])
1 | K([γGlu-C20 diacid])CNTATCATQRLAHFLRHSSPNFGAIPSSTPVGPNTY-NH2 (disulfide 2-7; N-terminus assumed; SMILES CC[C@H](C)[C@H](NC(=O)[C@H](C)NC(=O)CNC(=O)[C@H](Cc1ccccc1)NC(=O)[C@H](CC(N)=O)NC(=O)[C@@H]1CCCN1C(=O)[C@H](CO)NC(=O)[C@H](CO)NC(=O)[C@H](Cc1c[nH]cn1)NC(=O)[C@H](CCCNC(=N)N)NC(=O)[C@H](CC(C)C)NC(=O)[C@H](Cc1ccccc1)NC(=O)[C@H](Cc1c[nH]cn1)NC(=O)[C@H](C)NC(=O)[C@H](CC(C)C)NC(=O)[C@H](CCCNC(=N)N)NC(=O)[C@H](CCC(N)=O)NC(=O)[C@@H](NC(=O)[C@H](C)NC(=O)[C@@H]1CSSC[C@H](NC(=O)[C@@H](N)CCCCNC(=O)CC[C@H](NC(=O)CCCCCCCCCCCCCCCCCCC(=O)O)C(=O)O)C(=O)N[C@@H](CC(N)=O)C(=O)N[C@@H]([C@@H](C)O)C(=O)N[C@@H](C)C(=O)N[C@@H]([C@@H](C)O)C(=O)N1)[C@@H](C)O)C(=O)N1CCC[C@H]1C(=O)N[C@@H](CO)C(=O)N[C@@H](CO)C(=O)N[C@H](C(=O)N1CCC[C@H]1C(=O)N[C@H](C(=O)NCC(=O)N1CCC[C@H]1C(=O)N[C@@H](CC(N)=O)C(=O)N[C@H](C(=O)N[C@@H](Cc1ccc(O)cc1)C(N)=O)[C@@H](C)O)C(C)C)[C@@H](C)O, not restated for each compound) | 72.4 | 24.8 | 0.125 nM | 9.05 nM
2 | K([γGlu-γGlu-C20 diacid])CNTATCATQRLAEFLRHSSPNFGAIPSSTNVGPHTY-NH2 (disulfide 2-7 (inferred), not restated for each compound) | 73 | 27.3 | 0.288 nM | 21 nM
3 | K([γGlu-γGlu-C20 diacid])CNTATCATQRLAEFLRHSSPNFGAILSSTPVGPETY-NH2 (disulfide 2-7 (inferred), not restated for each compound) | 74.7 | 22.6 | 0.449 nM | 33.5 nM
4 | K([γGlu-γGlu-C20 diacid])CNTATCATQRLAEFLRHSSPNFGAIPSSTNVGHETY-NH2 (disulfide 2-7; N-terminus assumed; SMILES CC[C@H](C)[C@H](NC(=O)[C@H](C)NC(=O)CNC(=O)[C@H](Cc1ccccc1)NC(=O)[C@H](CC(N)=O)NC(=O)[C@@H]1CCCN1C(=O)[C@H](CO)NC(=O)[C@H](CO)NC(=O)[C@H](Cc1c[nH]cn1)NC(=O)[C@H](CCCNC(=N)N)NC(=O)[C@H](CC(C)C)NC(=O)[C@H](Cc1ccccc1)NC(=O)[C@H](CCC(=O)O)NC(=O)[C@H](C)NC(=O)[C@H](CC(C)C)NC(=O)[C@H](CCCNC(=N)N)NC(=O)[C@H](CCC(N)=O)NC(=O)[C@@H](NC(=O)[C@H](C)NC(=O)[C@@H]1CSSC[C@H](NC(=O)[C@@H](N)CCCCNC(=O)CC[C@H](NC(=O)CC[C@H](NC(=O)CCCCCCCCCCCCCCCCCCC(=O)O)C(=O)O)C(=O)O)C(=O)N[C@@H](CC(N)=O)C(=O)N[C@@H]([C@@H](C)O)C(=O)N[C@@H](C)C(=O)N[C@@H]([C@@H](C)O)C(=O)N1)[C@@H](C)O)C(=O)N1CCC[C@H]1C(=O)N[C@@H](CO)C(=O)N[C@@H](CO)C(=O)N[C@H](C(=O)N[C@@H](CC(N)=O)C(=O)N[C@H](C(=O)NCC(=O)N[C@@H](Cc1c[nH]cn1)C(=O)N[C@@H](CCC(=O)O)C(=O)N[C@H](C(=O)N[C@@H](Cc1ccc(O)cc1)C(N)=O)[C@@H](C)O)C(C)C)[C@@H](C)O, not restated for each compound) | 159 | 29.1 | 3.14 nM | 498 nM
5 | K([γGlu-γGlu-C20 diacid])CNTATCATQRLADFLRHSSPNFGAIPSSTNVGPRTY-NH2 (disulfide 2-7, not restated for each compound; also called compound 130) | 240 | 280 | 0.93 nM | 223 nM
6 | K([γGlu-γGlu-C20 diacid])CNTATCATQRLADFLRHSSPNFGAIPSSTNVGPETY-NH2 (disulfide 2-7, not restated for each compound) | 98.5 | 49.8 | 0.324 nM | 31.9 nM
7 | K([γGlu-γGlu-C20 diacid])CNTATCATQRLANFLRHSSPNFGAIPSSTPVGPRTY-NH2 (disulfide 2-7; N-terminus assumed; SMILES CC[C@H](C)[C@H](NC(=O)[C@H](C)NC(=O)CNC(=O)[C@H](Cc1ccccc1)NC(=O)[C@H](CC(N)=O)NC(=O)[C@@H]1CCCN1C(=O)[C@H](CO)NC(=O)[C@H](CO)NC(=O)[C@H](Cc1c[nH]cn1)NC(=O)[C@H](CCCNC(=N)N)NC(=O)[C@H](CC(C)C)NC(=O)[C@H](Cc1ccccc1)NC(=O)[C@H](CC(N)=O)NC(=O)[C@H](C)NC(=O)[C@H](CC(C)C)NC(=O)[C@H](CCCNC(=N)N)NC(=O)[C@H](CCC(N)=O)NC(=O)[C@@H](NC(=O)[C@H](C)NC(=O)[C@@H]1CSSC[C@H](NC(=O)[C@@H](N)CCCCNC(=O)CC[C@H](NC(=O)CC[C@H](NC(=O)CCCCCCCCCCCCCCCCCCC(=O)O)C(=O)O)C(=O)O)C(=O)N[C@@H](CC(N)=O)C(=O)N[C@@H]([C@@H](C)O)C(=O)N[C@@H](C)C(=O)N[C@@H]([C@@H](C)O)C(=O)N1)[C@@H](C)O)C(=O)N1CCC[C@H]1C(=O)N[C@@H](CO)C(=O)N[C@@H](CO)C(=O)N[C@H](C(=O)N1CCC[C@H]1C(=O)N[C@H](C(=O)NCC(=O)N1CCC[C@H]1C(=O)N[C@@H](CCCNC(=N)N)C(=O)N[C@H](C(=O)N[C@@H](Cc1ccc(O)cc1)C(N)=O)[C@@H](C)O)C(C)C)[C@@H](C)O, not restated for each compound) | 137 | 48.6 | 0.381 nM | 52.4 nM
